Measurements as given in the supplement of paper PMC9112550, “Optimization of the antimicrobial peptide Bac7 by deep mutational scanning” (BMC Biology, 2022).

system: Escherichia coli TOP10; experiment: shrunken log2 fold change of peptide-encoding DNA abundance (4.5 h post-induction vs induction); higher = less antimicrobial activity (less host growth inhibition); conditions: time post-induction: 4.5 h; library: site-saturation at positions 5, 18, 19, 20
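Note: peptides expressed intracellularly from a pBAD plasmid library in pooled LB shake-flask culture, induced with 0.3% L-arabinose, DNA abundance read by NGS, three biological replicates, DESeq2 with apeglm shrinkage.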

Going from RRIRIRPPRLPRPRPRPHLWPRP to RRIRDRPPRLPRPRPRPLVIPRP, the “shrunken log2 fold change” value rises from -0.256 to -0.0438.

First: RRIRIRPPRLPRPRPRPLGPPRP
Second: RRIRKRPPRLPRPRPRPQHIPRP
The “shrunken log2 fold change” value of the first is higher: 0.0624 for the first, -0.243 for the second.

Compared with RRIRQRPPRLPRPRPRPGHNPRP, RRIRHRPPRLPRPRPRPSLKPRP is lower in “shrunken log2 fold change” value: 0.0106 for the first, -0.488 for the second.

Going from RRIRIRPPRLPRPRPRPPEYPRP to RRIRIRPPRLPRPRPRPDEYPRP, the “shrunken log2 fold change” value rises from -0.186 to 0.0287.

Going from RRIRKRPPRLPRPRPRPSNHPRP to RRIRKRPPRLPRPRPRPPRSPRP, the “shrunken log2 fold change” value rises from -0.347 to 2.69.

Compared with RRIRERPPRLPRPRPRPINCPRP, RRIRFRPPRLPRPRPRPPFYPRP is lower in “shrunken log2 fold change” value: -0.00179 for the first, -0.462 for the second.

RRIRHRPPRLPRPRPRPKGNPRP and RRIRNRPPRLPRPRPRPQLVPRP are within 0.2 log units of each other in “shrunken log2 fold change” value: -0.124 for the first, -0.0147 for the second.

Going from RRIRCRPPRLPRPRPRPHCSPRP to RRIRDRPPRLPRPRPRPRYHPRP, the “shrunken log2 fold change” value rises from -0.769 to -0.0202.

RRIRRRPPRLPRPRPRPEGIPRP and RRIRQRPPRLPRPRPRPGKRPRP are within 0.2 log units of each other in “shrunken log2 fold change” value: 0.252 for the first, 0.244 for the second.

RRIRYRPPRLPRPRPRPPAHPRP and RRIRERPPRLPRPRPRPLHPPRP are within 0.2 log units of each other in “shrunken log2 fold change” value: 0.178 for the first, 0.309 for the second.

Compared with RRIRGRPPRLPRPRPRPFWQPRP, RRIRVRPPRLPRPRPRPRHEPRP is lower in “shrunken log2 fold change” value: 0.467 for the first, 0.193 for the second.

Going from RRIRQRPPRLPRPRPRPIFIPRP to RRIRNRPPRLPRPRPRPPVDPRP, the “shrunken log2 fold change” value rises from -0.472 to 0.36.

Compared with RRIRKRPPRLPRPRPRPRRIPRP, RRIRNRPPRLPRPRPRPDSGPRP is lower in “shrunken log2 fold change” value: 0.339 for the first, -0.166 for the second.

Going from RRIRNRPPRLPRPRPRPTNWPRP to RRIRPRPPRLPRPRPRPGIYPRP, the “shrunken log2 fold change” value falls from 0.31 to -0.133.

Compared with RRIRLRPPRLPRPRPRPYSGPRP, RRIRARPPRLPRPRPRPPIIPRP is lower in “shrunken log2 fold change” value: -0.103 for the first, -0.308 for the second.

First: RRIRCRPPRLPRPRPRPPFQPRP
Second: RRIRVRPPRLPRPRPRPDYVPRP
The “shrunken log2 fold change” value of the first is higher: 0.149 for the first, -0.406 for the second.

First: RRIRIRPPRLPRPRPRPCYMPRP
Second: RRIRIRPPRLPRPRPRPSILPRP
The “shrunken log2 fold change” value of the first is higher: -0.49 for the first, -0.878 for the second.

First: RRIRTRPPRLPRPRPRPHVIPRP
Second: RRIRYRPPRLPRPRPRPFHHPRP
The “shrunken log2 fold change” value of the first is higher: -0.192 for the first, -1.19 for the second.

Compared with RRIRMRPPRLPRPRPRPEVVPRP, RRIRARPPRLPRPRPRPTVYPRP is lower in “shrunken log2 fold change” value: 2.97 for the first, -0.00696 for the second.

Compared with RRIRARPPRLPRPRPRPKWHPRP, RRIRGRPPRLPRPRPRPWKVPRP is lower in “shrunken log2 fold change” value: 0.235 for the first, -0.00197 for the second.

Compared with RRIRRRPPRLPRPRPRPFKHPRP, RRIRSRPPRLPRPRPRPEAGPRP is higher in “shrunken log2 fold change” value: -0.212 for the first, 1.34 for the second.

Compared with RRIRWRPPRLPRPRPRPSTGPRP, RRIRLRPPRLPRPRPRPSWHPRP is higher in “shrunken log2 fold change” value: 0.00923 for the first, 0.25 for the second.

Going from RRIRFRPPRLPRPRPRPSQSPRP to RRIRGRPPRLPRPRPRPCVFPRP, the “shrunken log2 fold change” value rises from -0.0504 to 0.664.

Compared with RRIRNRPPRLPRPRPRPSIVPRP, RRIRWRPPRLPRPRPRPGEFPRP is higher in “shrunken log2 fold change” value: -0.335 for the first, 0.17 for the second.

Compared with RRIRIRPPRLPRPRPRPEQNPRP, RRIRKRPPRLPRPRPRPKRWPRP is higher in “shrunken log2 fold change” value: -0.204 for the first, 0.906 for the second.

Going from RRIRRRPPRLPRPRPRPNFVPRP to RRIRIRPPRLPRPRPRPSYYPRP, the “shrunken log2 fold change” value falls from -0.142 to -1.34.

First: RRIRLRPPRLPRPRPRPRIWPRP
Second: RRIRIRPPRLPRPRPRPTGIPRP
The “shrunken log2 fold change” value of the first is higher: 0.394 for the first, -0.0849 for the second.

RRIRERPPRLPRPRPRPEWTPRP and RRIRHRPPRLPRPRPRPAYQPRP are within 0.2 log units of each other in “shrunken log2 fold change” value: 0.0896 for the first, -0.0802 for the second.

Going from RRIRMRPPRLPRPRPRPIISPRP to RRIRPRPPRLPRPRPRPREHPRP, the “shrunken log2 fold change” value rises from -0.0891 to 0.121.

Compared with RRIRARPPRLPRPRPRPETNPRP, RRIRMRPPRLPRPRPRPIQIPRP is lower in “shrunken log2 fold change” value: 1.01 for the first, -0.155 for the second.

RRIRQRPPRLPRPRPRPTYRPRP and RRIRERPPRLPRPRPRPWTSPRP are within 0.2 log units of each other in “shrunken log2 fold change” value: 0.06 for the first, -0.028 for the second.

RRIRVRPPRLPRPRPRPWSPPRP and RRIRRRPPRLPRPRPRPYKAPRP are within 0.2 log units of each other in “shrunken log2 fold change” value: -0.00502 for the first, -0.108 for the second.

Going from RRIRPRPPRLPRPRPRPMPFPRP to RRIRCRPPRLPRPRPRPTLDPRP, the “shrunken log2 fold change” value rises from -0.349 to 0.337.

RRIRHRPPRLPRPRPRPHARPRP and RRIRQRPPRLPRPRPRPTSVPRP are within 0.2 log units of each other in “shrunken log2 fold change” value: 0.0947 for the first, 0.0377 for the second.

Compared with RRIRKRPPRLPRPRPRPGQHPRP, RRIRIRPPRLPRPRPRPFVDPRP is lower in “shrunken log2 fold change” value: -0.000613 for the first, -0.65 for the second.

RRIRARPPRLPRPRPRPRSQPRP and RRIRLRPPRLPRPRPRPQVEPRP are within 0.2 log units of each other in “shrunken log2 fold change” value: 0.00929 for the first, 0.0591 for the second.

Going from RRIRPRPPRLPRPRPRPNGWPRP to RRIRWRPPRLPRPRPRPANSPRP, the “shrunken log2 fold change” value falls from 0.296 to 0.0236.

RRIRLRPPRLPRPRPRPQRNPRP was tested, and the “shrunken log2 fold change” value was -0.789.
